The results in this text go back to patent US20040229250A1 (SHIRE HUMAN GENETIC THERAPIES, published 2004).

In data set [1] the target is T1, 23mer peptide P23 (MTDFYVPVSLCTPSRAALLTGRS).
T1 chain: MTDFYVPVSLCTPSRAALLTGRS

In data set [2] the target is T2, Formylglycine Generating Enzyme (FGE) purified from bovine testis microsomes (reticuloplasm) (bovine, UniProt Q0P5L5 34-374, N-glycosylated (bound to Concanavalin A)).
T2 construct: mature; Native enzyme at several stages of purification (microsome extract, MonoQ pool, ConA eluate); also called bovine FGE; FGE activity
T2 sequence (looked up): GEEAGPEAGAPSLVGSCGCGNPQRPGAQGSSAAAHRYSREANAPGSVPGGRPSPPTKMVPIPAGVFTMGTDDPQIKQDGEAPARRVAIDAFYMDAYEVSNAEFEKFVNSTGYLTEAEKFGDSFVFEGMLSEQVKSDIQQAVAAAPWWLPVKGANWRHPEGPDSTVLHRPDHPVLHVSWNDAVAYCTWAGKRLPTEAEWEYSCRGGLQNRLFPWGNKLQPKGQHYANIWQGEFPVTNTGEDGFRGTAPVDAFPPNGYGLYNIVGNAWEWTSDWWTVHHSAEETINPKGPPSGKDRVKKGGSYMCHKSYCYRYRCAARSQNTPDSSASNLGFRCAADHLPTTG
Kind of data set: affinity chromatography on peptide-derivatized Affigel 10, FGE activity from bovine testis. From the text: (§1) For purification of FGE the soluble fraction (reticuloplasm) of bovine testis microsomes served as the starting material. The specific activity of FGE was 10-20 times higher than that in reticuloplasm from bovine pancreas microsomes (Fey et al., J. Biol. Chem., 2001, 276:47021-47028). Purification of FGE was achieved by a combination of four chromatographic steps. The first two steps were chromatography on a MonoQ anion exchanger and on Concanavalin A-Sepharose. At pH 8 the FGE activity bound to MonoQ and was eluted at 50-165 mM NaCl with 60-90% recovery. When this fraction was mixed with Concanavalin A-Sepharose, FGE was bound. 30-40% of the starting activity could be eluted with 0.5 M a-methyl mannoside. The two final purification steps were chromatography on affinity matrices derivatized with 16mer peptides. The first affinity matrix was Affigel 10 substituted with a variant of the ASA65-80 peptide, in which residues Cys69, Pro7l and Arg73, critical for FGly formation, were scrambled (scrambled peptide […] -SEQ ID NO:34). […] Chromatography on the scrambled peptide affinity matrix removed peptide binding proteins including chaperones of the endoplasmic reticulum. The second affinity matrix was Affigel 10 substituted with a variant of the ASA65-80 peptide, in which the Cys69 was replaced by a serine (Ser69 peptide […]-SEQ ID NO:35).

Data set [3] deals with T2, Formylglycine Generating Enzyme (FGE) …. Description: affinity chromatography, peptide on Affigel 10, FGE from bovine testis.
Source text: as §1

B1: Formylglycine Generating Enzyme (FGE) purified from bovine testis microsomes (reticuloplasm) (protein)
chain: GEEAGPEAGAPSLVGSCGCGNPQRPGAQGSSAAAHRYSREANAPGSVPGGRPSPPTKMVPIPAGVFTMGTDDPQIKQDGEAPARRVAIDAFYMDAYEVSNAEFEKFVNSTGYLTEAEKFGDSFVFEGMLSEQVKSDIQQAVAAAPWWLPVKGANWRHPEGPDSTVLHRPDHPVLHVSWNDAVAYCTWAGKRLPTEAEWEYSCRGGLQNRLFPWGNKLQPKGQHYANIWQGEFPVTNTGEDGFRGTAPVDAFPPNGYGLYNIVGNAWEWTSDWWTVHHSAEETINPKGPPSGKDRVKKGGSYMCHKSYCYRYRCAARSQNTPDSSASNLGFRCAADHLPTTG
Take B1: in data set [1], the “conversion of P23 into a FGly containing derivative (MALDI-TOF)” value was “converted up to 95% of the peptide into a FGly containing derivative” and the km entry is reported as “The km for P23 was 13 nM”.

B2: scrambled peptide PVSLPTRSCAALLTGR (peptide)
peptide: PVSLPTRSCAALLTGR
notes: also called scrambled oligopeptide; variant of the ASA65-80 peptide in which residues Cys69, Pro71 and Arg73 were scrambled
In the case of B2, the binding result in data set [2] is on record as “no binding”.

B3: wildtype ASA65-80 peptide (synthetic 16mer corresponding to arylsulfatase A residues 65-80) (peptide)
peptide: PVSLCTPSRAALLTGR
notes: They follow from P23 and from the Ser69 peptide, which is the Cys69 to Ser variant
For B3, the binding result in data set [3] is on record as “binds”.

B4: Ser69 peptide PVSLSTPSRAALLTGR (peptide)
peptide: PVSLSTPSRAALLTGR
notes: also called Ser69 oligopeptide; variant of the ASA65-80 peptide in which Cys69 was replaced by a serine
As to B4, the binding result in data set [3] is listed as “binds”.
